We go through one molecule from paper PMC4488392 (2015).

For the assay, the target named is HD5. Description: SPR. A general note: In SPR one partner is held on a chip, and binding of the other changes the refractive index at the surface.

By Kd is commonly meant a measure of binding affinity in units of concentration. High values mean lower affinity, low ones higher affinity.

B1: HLA-B27 heavy chain homodimer (B27_(2)), recombinant HLA-B*2705 homodimer complex (complex)
chain 1: GSHSMRYFHTSVSRPGRGEPRFITVGYVDDTLFVRFDSDAASPREEPRAPWIEQEGPEYWDRETQICKAKAQTDREDLRTLLRYYNQSEAGSHTLQNMYGCDVGPDGRLLRGYHQDAYDGKDYIALNEDLSSWTAADTAAQITQRKWEAARVAEQLRAYLEGECVEWLRRYLENGKETLQRADPPKTHVTHHPISDHEATLRCWALGFYPAEITLTWQRDGEDQTQDTELVETRPAGDRTFQKWAAVVVPSGEEQRYTCHVQHEGLPKPLTLRWEPSSQSTVPIV
chain 2: SRYWAIRTR
modifications: biotinylated (site not stated)
As for B1, the Kd was 320 pM.
